Laboratory results published in paper PMC6426468 (Science Advances, 2019).

Columns and labels:
GST–lamin A = molecular target: T1, GST–lamin A (human, UniProt P02545 1-646); assay: pull-down
T1 sequence (looked up): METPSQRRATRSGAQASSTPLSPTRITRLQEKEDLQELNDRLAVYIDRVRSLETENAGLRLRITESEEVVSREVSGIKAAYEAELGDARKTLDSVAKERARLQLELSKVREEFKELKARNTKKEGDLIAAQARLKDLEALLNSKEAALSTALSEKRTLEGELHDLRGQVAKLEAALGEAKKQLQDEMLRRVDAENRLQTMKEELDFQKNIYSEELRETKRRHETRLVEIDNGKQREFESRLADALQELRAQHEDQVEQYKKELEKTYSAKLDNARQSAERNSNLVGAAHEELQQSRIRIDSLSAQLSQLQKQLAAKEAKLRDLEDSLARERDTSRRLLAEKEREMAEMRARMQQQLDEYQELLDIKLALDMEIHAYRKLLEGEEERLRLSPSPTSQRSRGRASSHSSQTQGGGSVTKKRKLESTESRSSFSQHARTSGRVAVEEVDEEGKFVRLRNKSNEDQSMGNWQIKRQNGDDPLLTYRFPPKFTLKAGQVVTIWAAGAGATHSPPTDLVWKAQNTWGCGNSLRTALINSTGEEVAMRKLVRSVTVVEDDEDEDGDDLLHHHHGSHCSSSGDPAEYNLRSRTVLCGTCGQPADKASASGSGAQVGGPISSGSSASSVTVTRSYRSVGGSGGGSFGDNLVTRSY

GST–prelamin A = molecular target: T2, GST–prelamin A (human, UniProt P02545 1-664); assay: pull-down
T2 sequence (looked up): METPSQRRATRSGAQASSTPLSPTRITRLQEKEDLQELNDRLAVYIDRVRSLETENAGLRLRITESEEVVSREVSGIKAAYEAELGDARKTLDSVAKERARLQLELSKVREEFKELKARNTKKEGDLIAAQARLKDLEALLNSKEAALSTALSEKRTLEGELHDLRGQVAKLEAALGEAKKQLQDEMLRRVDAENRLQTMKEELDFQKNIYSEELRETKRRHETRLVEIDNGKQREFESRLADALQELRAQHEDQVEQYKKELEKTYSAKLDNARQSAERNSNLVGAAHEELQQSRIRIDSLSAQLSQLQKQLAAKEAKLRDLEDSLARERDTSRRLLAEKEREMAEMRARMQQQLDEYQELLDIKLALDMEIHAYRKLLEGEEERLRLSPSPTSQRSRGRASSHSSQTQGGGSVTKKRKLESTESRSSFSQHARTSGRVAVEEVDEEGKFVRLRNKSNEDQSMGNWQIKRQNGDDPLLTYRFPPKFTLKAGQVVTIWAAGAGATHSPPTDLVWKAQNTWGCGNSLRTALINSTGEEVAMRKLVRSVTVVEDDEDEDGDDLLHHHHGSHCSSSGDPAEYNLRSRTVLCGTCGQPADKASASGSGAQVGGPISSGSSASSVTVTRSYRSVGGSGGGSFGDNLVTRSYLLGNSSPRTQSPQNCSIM

B1: CK2β (in vitro pull-down) (natural protein)
chain: not shown
GST–lamin A
  binding result: binds
GST–prelamin A
  binding result: binds
